Changes are numbered by the printed parent chain. Read-outs that look alike come from different tables or passages of the source. One block for each binder: values may come before it.
Assays:
[1] = target: T1, human IL-8 (human, UniProt P10145 23-99, limits assumed); experiment: SPR pH 5.8 37C
T1 construct: also called hIL-8
T1 sequence: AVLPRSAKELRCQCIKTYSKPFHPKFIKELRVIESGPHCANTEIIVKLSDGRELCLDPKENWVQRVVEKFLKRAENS
Description: (§1) The following two running buffers were used, and measurements were carried out at the respective temperatures: (1) 0.05% tween20, 40 mM ACES, 150 mM NaCl, pH 7.4, 40° C.: and (2) 0.05% tween20, 40 mM ACES, 150 mM NaCl, pH 5.8, 37° C.
(§2) An appropriate amount of Protein A/G (PIERCE) was immobilized onto the Sensor chip CM4 (GE Healthcare) by the amine coupling method and the antibodies of interest were captured. Next, a diluted human IL-8 solution or a running buffer (used as a reference solution) was injected to allow interaction of the antibodies captured onto the sensor chip with human IL-8. For the running buffer, either one of the above-mentioned solutions was used, and the respective buffers were also used to dilute human IL-8. To regenerate the sensor chip, 25 mM NaOH and 10 mM glycine-HCl (pH 1.5) were used. KD (M) of each antibody for human IL-8 was calculated based on the association rate constant kon (1/Ms) and dissociation rate constant koff (1/s) which are kinetic parameters calculated from sensorgrams obtained by the measurements. The BIACORE T200 Evaluation Software (GE Healthcare) was used to calculate each parameter.

[2] = target: T1, human IL-8; experiment: SPR pH 7.4 40C; 50C 1 week in PBS against initial
Description: The levels of human IL-8 binding to the modified antibodies were analyzed using BIACORE T200 (GE Healthcare). Measurements were carried out at 40° C. by using 0.05% tween20, 40 mM ACES, and 150 mM NaCl at pH 7.4 as the running buffer.
An appropriate amount of Protein A/G (PIERCE) was immobilized onto the Sensor chip CM4 (GE Healthcare) by the amine coupling method and the antibodies of interest was captured. Next, a diluted human IL-8 solution or a running buffer (used as a reference solution) was injected to allow interaction of the antibodies captured onto the sensor chip with human IL-8. The running buffer was also used to dilute human IL-8. To regenerate the sensor chip, 25 mM NaOH and 10 mM glycine-HCl (pH 1.5) were used. The measured binding level of human IL-8 and the amount of antibodies captured at that binding level were extracted using the BIACORE T200 Evaluation Software (GE Healthcare).
The amount of human IL-8-binding per 1000 RU of the amount of antibody captured was calculated for the initial samples and the samples for the thermal acceleration test. Furthermore, the ratio of the human IL-8-binding level for the initial samples to that for samples of the thermal acceleration test was calculated.

[3] = target: T2, human IgE (human, UniProt P01854-1 1-428); experiment: SPR, Ab captured, IgE analyte, pH 5.8, 25C
T2 construct: whole IgE; also called hIgE
T2 sequence (P01854 other isoform, or with tags, fused parts or gaps): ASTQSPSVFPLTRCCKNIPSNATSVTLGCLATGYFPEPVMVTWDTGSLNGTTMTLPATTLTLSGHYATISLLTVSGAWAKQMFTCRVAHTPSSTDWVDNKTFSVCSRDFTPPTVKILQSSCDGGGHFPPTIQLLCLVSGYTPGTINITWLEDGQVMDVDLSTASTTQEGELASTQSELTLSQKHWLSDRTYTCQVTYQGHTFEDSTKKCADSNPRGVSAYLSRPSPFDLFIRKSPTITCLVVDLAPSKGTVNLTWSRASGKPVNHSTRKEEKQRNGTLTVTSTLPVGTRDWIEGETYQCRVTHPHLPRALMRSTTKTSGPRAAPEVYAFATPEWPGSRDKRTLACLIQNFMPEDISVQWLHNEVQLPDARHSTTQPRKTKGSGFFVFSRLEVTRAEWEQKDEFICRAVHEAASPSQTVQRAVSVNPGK
Description: (§3) An appropriate amount of Protein A/G (ACTIGEN) was fixed onto Sensor chip CM4 (GE Healthcare) by the amine coupling method to capture the antibodies of interest. Next, human IgE was made to interact with the antibodies captured onto the sensor chip by injecting a diluted IgE solution and a running buffer (used as a reference solution). For the running buffer, either of the buffers (1) and (2) above was used, and human IgE was diluted using the respective buffer. To regenerate the sensor chip, 10 mM glycine-HCl at pH 1.5 was used. All measurements were carried out at 25° C. KD (M) for human IgE was calculated for each antibody based on the association rate constant ka (1/Ms) and dissociation rate constant kd (1/s), which are kinetic parameters calculated from the sensorgrams obtained by the measurements. The BIACORE T100 Evaluation Software (GE Healthcare) was used to calculate each parameter.

[4] = target: T3, soluble human FcγRIIb (human, UniProt P31994 43-217, limits assumed); experiment: SPR, Ab-IgE complex over captured hFcγRIIb, pH 7.4, 25C
T3 construct: soluble His-tagged form; also called hFcγRIIb
T3 sequence (looked up): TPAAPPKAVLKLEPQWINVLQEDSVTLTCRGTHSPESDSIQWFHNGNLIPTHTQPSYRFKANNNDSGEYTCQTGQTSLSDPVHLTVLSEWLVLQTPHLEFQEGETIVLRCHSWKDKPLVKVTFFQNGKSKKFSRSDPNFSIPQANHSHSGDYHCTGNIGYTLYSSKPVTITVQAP
Description: (§4) Regarding the produced Fc region variant-containing antibodies, binding assays between soluble human FcγRIIb and antigen-antibody complexes were performed using BIACORE T200 (GE Healthcare). Soluble human FcγRIIb (NCBI accession NM_004001.3) was produced in the form of a His-tagged molecule by a method known in the art. An appropriate amount of an anti-His antibody was fixed onto Sensor chip CM5 (GE Healthcare) by the amine coupling method using a His capture kit (GE Healthcare) to capture human FcγRIIb. Next, an antibody-antigen complex and a running buffer (as a reference solution) were injected, and interaction was allowed to take place with the human FcγRIIb captured onto the sensor chip. 20 mM N-(2-Acetamido)-2-aminoethanesulfonic acid, 150 mM NaCl, 1.2 mM CaCl₂, and 0.05% (w/v) Tween 20 at pH 7.4 was used as the running buffer, and the respective buffer was also used to dilute the soluble human FcγRIIb. To regenerate the sensor chip, 10 mM glycine-HCl at pH 1.5 was used. All measurements were carried out at 25° C. Analyses were performed based on binding (RU) calculated from sensorgrams obtained by the measurements, and relative values when the binding amount of Ab1H/Ab1L (original Ab1) was defined as 1.00 are shown. To calculate the parameters, the BIACORE T100 Evaluation Software (GE Healthcare) was used.

[5] = target: T3, soluble human FcγRIIb; experiment: as above; remark: listed apart in the source
Description: as §4

[6] = target: T3, soluble human FcγRIIb; experiment: as above; remark: listed apart in the source
Description: as §4

[7] = target: T2, human IgE; experiment: SPR, Ab captured, IgE analyte, pH 7.4, 25C
Description: as §3

[8] = target: T4, soluble human FcγRIIIa (human, UniProt P08637 17-208, limits assumed); experiment: SPR, Ab captured on Protein L, 20C
T4 construct: soluble His-tagged form; also called hFcγRIIIa
T4 sequence (P08637 17-208 limits assumed): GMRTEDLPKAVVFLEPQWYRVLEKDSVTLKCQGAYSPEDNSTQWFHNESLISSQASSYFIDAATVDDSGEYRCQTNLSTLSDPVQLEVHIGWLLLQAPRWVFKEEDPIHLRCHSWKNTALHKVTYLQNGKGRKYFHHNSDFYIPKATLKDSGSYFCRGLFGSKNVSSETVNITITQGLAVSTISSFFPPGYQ
Description: (§5) Soluble FcγRIa and FcγRIIIa in both human and cynomolgus monkey were produced in the form of His-tagged molecules by methods known to those of ordinary skill in the art. An appropriate amount of rProtein L (BioVision) was immobilized onto the Sensor chip CM4 (GE Healthcare) by the amine coupling method and antibody of interest was captured. Next, soluble FcγRIa or FcγRIIIa was injected with a running buffer (used as a reference solution), and was made to interact with the antibodies captured onto the sensor chip. HBS-EP+ (GE Healthcare) was used as the running buffer, and HBS-EP+ was also used to dilute the soluble FcγRIa or FcγRIIIa. To regenerate the sensor chip, 10 mM glycine-HCl at pH 1.5 was used. All measurements were carried out at 20° C.

[9] = target: T5, soluble human FcγRIa (human, UniProt P12314 16-292, limits assumed); experiment: SPR, Ab captured on Protein L, 20C
T5 construct: soluble His-tagged form; also called hFcγRIa
T5 sequence (P12314 16-292 limits assumed): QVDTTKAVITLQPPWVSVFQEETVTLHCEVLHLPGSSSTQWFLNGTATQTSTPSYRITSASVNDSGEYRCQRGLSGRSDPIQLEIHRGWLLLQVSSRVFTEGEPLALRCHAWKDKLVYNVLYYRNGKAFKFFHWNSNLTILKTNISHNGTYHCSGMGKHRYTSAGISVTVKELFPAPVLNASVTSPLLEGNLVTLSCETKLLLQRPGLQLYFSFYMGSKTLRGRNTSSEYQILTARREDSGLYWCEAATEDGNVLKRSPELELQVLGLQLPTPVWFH
Description: as §5

[10] = target: T6, soluble cynomolgus monkey FcγRIIIa (cynomolgus monkey, UniProt Q8SPW2 17-208, limits assumed); experiment: SPR, Ab captured on Protein L, 20C
T6 construct: soluble His-tagged form; also called cynoFcγRIIIa
T6 sequence (Q8SPW2 17-208 limits assumed): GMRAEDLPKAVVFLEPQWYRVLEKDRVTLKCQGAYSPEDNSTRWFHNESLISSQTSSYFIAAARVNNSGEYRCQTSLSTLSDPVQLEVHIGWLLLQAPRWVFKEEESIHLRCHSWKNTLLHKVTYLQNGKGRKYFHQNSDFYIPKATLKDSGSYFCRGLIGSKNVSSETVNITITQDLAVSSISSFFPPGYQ
Description: as §5

[11] = target: T1, human IL-8; experiment: SPR pH 7.4 40C
Description: as §1, §2

Kd [1]: 71000 nM
B1: H1000/L0442 (antibody, human IgG1, kappa, name in Kabat numbering, V domains shown)
VH: QVQLVESGGGLVQPGGSLRLSCAASGFTFSEYYLSWVRQAPGKGLEWVGLIRNKDNHHTPEYSASVKGRFTISRDDSKNSLYLTMSDLKTEDTAVYYCARENHRYDVELAYWGQGTLVTVSS
VL: DIQMTQSPSSLSASVGDRVTITCRASEIIYEYLAWYQQKPGKAPKLLIYKAKTHADGVPSRFSGSGSGTDFTFTISSLQPEDIATYYCKHHFGFPRTFGQGTKVEIKR

Ratio of IL-8 Amount (Thermal Acceleration/Initial) [2]: 0.49
B2: H1040/L0442 (antibody, human IgG1, kappa, name in Kabat numbering, V domains shown)
VH: B1 VH with T59H
VL: B1 VL

Kd [1]: 7700 nM
B3: H1050/L0395 (antibody, human IgG1, kappa, name in Kabat numbering, V domains shown)
VH: B1 VH with H57Y
VL: B1 VL with E31S

Kd [3]: 2400 nM
koff [3]: 0.039 s⁻¹
kon [3]: 16000 M⁻¹ s⁻¹
BIACORE fold (relative binding, original Ab1=1.00) [4]: 1 fold
BIACORE fold (relative binding, original Ab1=1.00) [5]: 1 fold
BIACORE fold (relative binding, original Ab1=1.00) [6]: 1 fold
Kd [7]: 2.3 nM
koff [7]: 0.006 s⁻¹
kon [7]: 2.7e+06 M⁻¹ s⁻¹
B4: Ab1 (antibody, human IgG1, kappa)
heavy: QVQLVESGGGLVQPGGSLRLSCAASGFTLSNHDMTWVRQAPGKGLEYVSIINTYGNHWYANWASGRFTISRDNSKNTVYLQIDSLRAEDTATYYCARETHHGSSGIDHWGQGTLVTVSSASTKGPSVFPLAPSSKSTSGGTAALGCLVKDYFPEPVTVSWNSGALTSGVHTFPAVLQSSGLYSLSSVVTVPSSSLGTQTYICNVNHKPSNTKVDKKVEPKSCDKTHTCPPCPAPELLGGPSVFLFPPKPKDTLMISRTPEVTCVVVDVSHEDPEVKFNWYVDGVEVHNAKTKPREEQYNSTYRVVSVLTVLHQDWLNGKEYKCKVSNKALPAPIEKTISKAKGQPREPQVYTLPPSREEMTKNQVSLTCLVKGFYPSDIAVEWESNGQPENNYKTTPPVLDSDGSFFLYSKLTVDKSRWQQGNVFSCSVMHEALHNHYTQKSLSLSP
light: DIQMTQSPSSVSASVGDRVTITCQASESIYSGLAWYQQKPGQPPKLLIYDHSTLASGVPSRFSGSGSGTEYALTISSLQPEDFATYYCQHADYAHHSDNVFGGGTKVEIKRTVAAPSVFIFPPSDEQLKSGTASVVCLLNNFYPREAKVQWKVDNALQSGNSQESVTEQDSKDSTYSLSSTLTLSKADYEKHKVYACEVTHQGLSSPVTKSFNRGEC
notes: also called Ab1H/Ab1L; original Ab1; copies: 2 + 2

Ratio of IL-8 Amount (Thermal Acceleration/Initial) [2]: 0.64
B5: H1009/L395 (antibody, human IgG1, kappa)
heavy: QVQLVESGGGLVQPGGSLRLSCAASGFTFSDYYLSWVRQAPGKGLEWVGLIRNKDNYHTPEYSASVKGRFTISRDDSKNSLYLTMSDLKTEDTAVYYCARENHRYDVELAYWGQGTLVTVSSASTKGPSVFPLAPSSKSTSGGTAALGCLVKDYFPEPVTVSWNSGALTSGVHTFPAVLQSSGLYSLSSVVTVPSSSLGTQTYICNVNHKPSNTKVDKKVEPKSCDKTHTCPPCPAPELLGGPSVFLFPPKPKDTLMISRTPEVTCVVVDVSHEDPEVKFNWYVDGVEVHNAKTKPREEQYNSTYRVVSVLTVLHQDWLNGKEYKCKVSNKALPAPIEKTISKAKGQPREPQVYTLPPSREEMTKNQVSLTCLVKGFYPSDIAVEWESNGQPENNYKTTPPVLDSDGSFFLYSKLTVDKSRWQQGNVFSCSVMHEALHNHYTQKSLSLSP
light: DIQMTQSPSSLSASVGDRVTITCRASEIIYSYLAWYQQKPGKAPKLLIYKAKTHADGVPSRFSGSGSGTDFTFTISSLQPEDIATYYCKHHFGFPRTFGQGTKVEIKRTVAAPSVFIFPPSDEQLKSGTASVVCLLNNFYPREAKVQWKVDNALQSGNSQESVTEQDSKDSTYSLSSTLTLSKADYEKHKVYACEVTHQGLSSPVTKSFNRGEC
notes: also called H1009/L0395; H1009/L395-IgG1

binding result [8]: no binding
binding result [9]: no binding
binding result [10]: no binding
B6: H1009/L395-F1886s (antibody)
heavy: QVQLVESGGGLVQPGGSLRLSCAASGFTFSDYYLSWVRQAPGKGLEWVGLIRNKDNYHTPEYSASVKGRFTISRDDSKNSLYLTMSDLKTEDTAVYYCARENHRYDVELAYWGQGTLVTVSSASTKGPSVFPLAPSSKSTSGGTAALGCLVKDYFPEPVTVSWNSGALTSGVHTFPAVLQSSGLYSLSSVVTVPSSSLGTQTYICNVNHKPSNTKVDKKVEPKSCDKTHTCPPCPAPELRRGPKVFLFPPKPKDTLMISRTPEVTCVVVDVSHEDPEVKFNWYVDGVEVHNAKTKPREEQYNSTYRVVSVLTVLHQDWLNGKEYKCKVSNKALPAPIEKTISKAKGQPREPQVYTLPPSREEMTKNQVSLTCLVKGFYPSDIAVEWESNGQPENNYKTTPPVLDSDGSFFLYSKLTVDKSRWQQGNVFSCSVLHEALHAHTTRKELSLSP
light: B5 light
notes: copies: 2 + 2

Kd [1]: 7100 nM
koff [1]: 0.017 s⁻¹
Kd [11]: 0.12 nM
B7: H1023/L0442 (antibody, human IgG1, kappa, name in Kabat numbering, V domains shown)
VH: B1 VH with E31D, H57G, H58Y, T59H
VL: B1 VL

binding result [8]: no binding
binding result [9]: no binding
binding result [10]: no binding
B8: H1009/L395-F1974m (antibody)
heavy: B6 heavy with K244S, A332G, A335S, P336S
light: B5 light
notes: copies: 2 + 2

Kd [1]: 92 nM
koff [1]: 0.018 s⁻¹
Kd [11]: 0.076 nM
B9: H1023/L0395 (antibody, human IgG1, kappa, name in Kabat numbering, V domains shown)
VH: B1 VH with E31D, H57G, H58Y, T59H
VL: B1 VL with E31S
